Measured values taken from publication PMC5150637.

Test system: T1, MBP-SphR (Pseudomonas aeruginosa (strain PAO1?)), ORF:ae0b4f1c
T1 sequence: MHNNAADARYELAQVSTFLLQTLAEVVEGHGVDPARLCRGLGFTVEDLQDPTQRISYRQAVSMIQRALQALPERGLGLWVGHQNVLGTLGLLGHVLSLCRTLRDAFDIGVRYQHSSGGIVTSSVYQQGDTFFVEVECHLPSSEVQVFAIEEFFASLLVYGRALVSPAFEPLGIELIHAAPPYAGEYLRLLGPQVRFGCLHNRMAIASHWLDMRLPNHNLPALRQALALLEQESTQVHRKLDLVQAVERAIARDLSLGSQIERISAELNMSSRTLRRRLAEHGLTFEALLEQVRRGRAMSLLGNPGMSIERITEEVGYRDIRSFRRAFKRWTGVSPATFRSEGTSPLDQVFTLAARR
Assay: competition
Conditions: 10 mM Tris-HCl pH 7.5, 50 mM KCl, 1 mM DTT, 1 mM EDTA, 3 mM MgCl2, 50 ug/ml BSA, 4% glycerol, 0.05% NP-40, 50 ng/ul poly(dI-dC), 30 C, 30 min

For “GGTTGCCACTGTAGTGCCAGGGTGGTGGAGTCGAGGGGGGCGTAGCGGACAGGAAGGGGGTGAGCGCCGGCCATCCTGCATGGACGGCAAGGCAGGCGGGTAAAAAAAGGCCGCCTGCGT (double strand) [cerN promoter -200 to -81, unlabeled competitor]”, the binding was “binds”.
